According to US20130203162A1 (EVROGEN IP JOINT STOCK, published 2013):

Key:
[1] = target: the molecule itself; assay: gel filtration, self-association
Description: (§1) Purified protein samples (˜1 mg/ml) were loaded onto a Sephadex-100 column (0.7×60 cm) and eluted with a solution of 50 mM phosphate buffer (pH 7.0) and 100 mM NaCl. EGFP, HcRed1 and DsRed2 (Clontech) were used as monomer, dimer and tetramer standards, respectively. In addition, a tendency to form tetramers has been indicated when recombinant purified EqFP578 was used for the gel-filtration at concentration of about 10 mg/ml.
Recombinant M1-NA was prepared, purified and characterized as described in the Example 2 for wild type EqFP578. According to gel-filtration data, M1-NA is a dimeric protein at a concentration of 1 mg/ml. Fluorescent properties of M1-NA are the same as those of EqFP578 ml. M1-NA is a bright red fluorescent protein, characterized with excitation/emission fluorescence spectra peaked at 553/574 nm. M1-NA fluorescence quantum yield=0.67, molar extinction coefficient (at 553 nm)=92,000 M(−1)cm(−1). M1-NA doesn't form aggregates in vitro, according to gel-electrophoresis data. It also doesn't form any noticeable aggregates upon expression in eukaryotic cells, as it was shown for HeLa and 293T cell lines.
It excitation/emission spectra peaked at 574/602 nm (see FIG. 4 for spectra). M1-602 nm fluorescence quantum yield=0.35, molar extinction coefficient (at 574 nm)=74,400 M″)cm⁽⁻¹⁾. According to gel-filtration data, M1-602 nm is a dimeric protein at concentration of 1 mg/ml.

[2] = target: the molecule itself; assay: gel filtration on Sephadex-100, self-association (~1 mg/ml dimer; about 10 mg/ml tendency to tetramers)
Description: as §1

[3] = target: the molecule itself; assay: gel filtration as in Example 2, self-association
Description: as §1
Recombinant EqFP578 ml was prepared, purified and characterized as described in the Example 2 for wild type EqFP578. Fluorescence properties of this mutant were similar, but not identical to the wild type EqFP578. It has excitation-emission spectral peaks at 553 and 574 nm, respectively (FIG. 3). […] Like wild type EqFP578, EqFP578 m1 is a dimer.

[4] = target: the molecule itself; assay: gel filtration (self-association)
Description: as §1
Recombinant nrM181-5 was prepared, purified and characterized as described in the Example 2 for wild type EqFP578. nrM181-5 is a cyan fluorescent protein, characterized with excitation/emission fluorescence spectra peaked at 400/470 nm (see FIG. 7 for spectra). According to gel-filtration data, nrM181-5 is a monomeric protein at a concentration of 1 mg/ml. The protein is capable of photoconversion to the red fluorescent form in response to violet light irradiation.

B1: M1-NA non-aggregating mutant of EqFP578 (other)
chain: MGEYSELITENMHMKLYMEGTVNNHHFKCTSEGEGKPYEGTQTMKIKVVEGGPLPFAFDILATSFMYGSKAFINHTQGIPDFFKQSFPEGFTWERITTYEDGGVLTATQDTSFQNGCIIYNVKINGVNFPSNGPVMQKKTRGWEANTEMLYPADGGLRGHSQMALKLVGGGYLHCSFKTTYRSKKPAKNLRMPGFHFVDHRLERIKEADKETYVEQHEMAVAKYCDLPSKLGHS
binding result [1]: binds

B2: M1-602 mutant of EqFP578 (other)
chain: MGEDSELITENMHMKLYMEGTVNNHHFKCTSEGEGKPYEGTQTMKIKVVEGGPLPFAFDILATSFMYGSKAFINHTQGIPDFFKQSFPEGFTWERITTYEDGGVLTATQDTSLQNGCLIYNVKINGVNFPSNGPVMQKKTLGWEASTEMLYPADSGLRGHGQMALKLVGGGYLHCSLKTTYRSKKPAKNLKMPGFHFVDHRLERIKEADKETYVEQHEMAVAKYCDLPSKLGHS
notes: Engineered red-shifted mutant; also called M1-602 nm
binding result [1]: binds

B3: M1-637 mutant of EqFP578 (other)
chain: MGEDSELITENMHMKLYMEGTVNNHHFKCTSEGEGKPYEGTQTMKIKVVEGGPLPFAFDILATSFMYGSKAFINHTQGIPDFFKQSFPEGFTWERITTYEDGGVLTATQDTSLQNGCLIYNVKINGVNFPSNGPVMQKKTLGWEASTEMLYPADSGLRGHSQMALKLVGGGYLHCSLKTTYRSKKPAKNLKMPGFHFVDRRLERIKEADKETYVEQHEMAVAKYCDLPSKLGHS
binding result [1]: binds

B4: wild type Entacmaea quadricolor red fluorescent protein EqFP578 (other)
chain: MSELIKENMHMKLYMEGTVNNHHFKCTSEGERKPYEGTQTMKIKVVEGGPLPFAFDILATSFMYGSKTFINHTQGIPDLFKQSFPEGFTWERITTYEDGGVLTATQDTSLQNGCIIYNVKINGVNFPSNGSVMQKKTLGWEANTEMLYPADGGLRGHSQMALKLVGGGYLHCSFKTTYRSKKPAKNLKMPGFHFVDHRLERIKEADKETYVEQHEMAVAKYCDLPSKLGHR
notes: Recombinant protein from E. coli, purified on TALON resin; Dimer by gel filtration at ~1 mg/ml, with a tendency to form tetramers at about 10 mg/ml; not shown: N-terminal six-histidine tag from the pQE30 vector
binding result [2]: binds

B5: EqFP578 m1 mutant (other)
chain: MSELIKENMHMKLYMEGTVNNHHFKCTSEGEGKPYEGTQTMKIKVVEGGPLPFAFDILATSFMYGSKAFINHTQGIPDFFKQSFPEGFTWERITTYEDGGVLTATQDTSFQNGCIIYNVKINGVNFPSNGPVMQKKTRGWEANTEMLYPADGGLRGHSQMALKLVGGGYLHCSFKTTYRSKKPAKNLKMPGFHFVDHRLERIKEADKETYVEQHEMAVAKYCDLPSKLGHR
notes: Engineered mutant of EqFP578; also called EqFP578 ml
binding result [3]: binds

B6: nrM181-5 cyan mutant of EqFP578 (other)
chain: MSELIKENMHMKLYMEGTVNNHHFKCTSEGEGKPYEGTQTMKIKVVEGGPLPFAFDILATSFMYGSKTFINHTQGIPDFFKQSFPEGFTWERVTTYEDGGVLTATQDTSLQDGCLIYNVKIRGVNFPSNGPVMQKKTLGWEAHTEMLYPADGGLEGRSDMALKLVGGGHLIANFKTTYRSKKPAKNLKMPGVYYVDHRLERIKEADKETYVEQHEMAVAKYCDLPSKLGHKLN
notes: Derived from M1-mono1
binding result [4]: no binding (tested: 1 mg/ml)

B7: Cyan-2-1 cyan mutant of EqFP578 (other)
chain: MSELIKENMHMKLYMEGTVNNHHFKCTSEGEGKPYGGTQTMRIKVVEGGPLPVAFDILATSFMYGSRTFINHTQGIPDFFKQSFPEGFTWERVTTYEDGGVLTATQDTSLQDGCLIYNVKIRGVNFPSNGPVMQKKTLGWEAFTEMLYPADGGLEGRSDMALKLVGGGHLICNFKTTYRSKKPAKNLKMPGVYYVDYRLERIKEADKETYVEQHEVAVARYCDLPSKLGHKLN
notes: Derived from M1-mono1
binding result [4]: no binding (tested: 1 mg/ml)
